Assay results: patent US20060084593A1

Target: gp120/CD4 complex (human immunodeficiency virus (HIV), hxbc2) (UniProt P04578)
Assay: SPR (Biacore); 48d immobilized; gp120 50 nM, CD4 250 nM, heparin dp16 at 125 nM (0.6 µg/ml) as inhibitor

Work on “antibody 48d specific for the CD4i epitope” yielded a % inhibition of the interaction by heparin dp16 (125 nM) of 90 to 100%.
